Patent publication US10500249B2, “Compositions and methods for preventing or treating diseases, conditions, or processes characterized by aberrant fibroblast proliferation and extracellular matrix deposition” (MOERAE MATRIX, INC., priority 2014, dated 2019)

How the values were obtained:
Assay in all cases: Kinase Profiling Assay
Format in all cases: biochemical
Settings in all cases: 100 μM
[1] = target: T1, TAO2 (h) (Homo sapiens, UniProt Q9UL54)
T1 sequence (Q9UL54 1-1235): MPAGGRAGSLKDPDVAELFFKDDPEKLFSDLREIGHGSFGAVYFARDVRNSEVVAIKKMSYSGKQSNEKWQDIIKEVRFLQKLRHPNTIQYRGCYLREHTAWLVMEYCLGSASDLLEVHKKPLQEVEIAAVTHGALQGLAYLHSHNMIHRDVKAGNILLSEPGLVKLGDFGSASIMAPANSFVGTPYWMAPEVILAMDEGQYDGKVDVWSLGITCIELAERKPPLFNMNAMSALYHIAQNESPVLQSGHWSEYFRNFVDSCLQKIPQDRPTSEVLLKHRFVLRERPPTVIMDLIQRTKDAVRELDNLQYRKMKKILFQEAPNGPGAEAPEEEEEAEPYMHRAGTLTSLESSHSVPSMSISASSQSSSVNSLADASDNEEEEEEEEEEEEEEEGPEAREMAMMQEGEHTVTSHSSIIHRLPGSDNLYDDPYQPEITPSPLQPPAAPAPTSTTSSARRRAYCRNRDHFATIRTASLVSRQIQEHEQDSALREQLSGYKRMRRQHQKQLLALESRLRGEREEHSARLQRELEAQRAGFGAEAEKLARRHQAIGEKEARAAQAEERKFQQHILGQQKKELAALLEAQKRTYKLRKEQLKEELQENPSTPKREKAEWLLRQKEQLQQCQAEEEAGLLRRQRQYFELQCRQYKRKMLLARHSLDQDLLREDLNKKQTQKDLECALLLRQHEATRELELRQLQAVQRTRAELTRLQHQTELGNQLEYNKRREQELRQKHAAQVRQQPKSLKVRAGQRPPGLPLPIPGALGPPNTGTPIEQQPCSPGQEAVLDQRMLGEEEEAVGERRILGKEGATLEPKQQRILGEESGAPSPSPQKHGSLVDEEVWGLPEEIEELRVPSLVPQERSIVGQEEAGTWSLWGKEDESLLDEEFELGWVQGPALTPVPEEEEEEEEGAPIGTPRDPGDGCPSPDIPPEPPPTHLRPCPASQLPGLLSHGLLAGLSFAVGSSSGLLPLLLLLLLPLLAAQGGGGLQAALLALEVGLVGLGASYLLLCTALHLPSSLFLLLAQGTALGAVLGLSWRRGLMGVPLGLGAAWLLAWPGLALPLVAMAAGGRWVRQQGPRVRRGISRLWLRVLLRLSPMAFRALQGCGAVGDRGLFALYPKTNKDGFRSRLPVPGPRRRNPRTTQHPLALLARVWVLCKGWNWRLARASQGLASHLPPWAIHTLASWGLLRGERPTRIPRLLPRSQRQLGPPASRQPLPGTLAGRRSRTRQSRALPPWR
In short: (§1)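 Kinase inhibition by MK2 inhibitory peptides was profiled radiometrically, with substrate phosphorylation from labeled ATP read by scintillation after capture on a charged filter. Values are relative to 100% activity and measured in duplicate.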

[2] = target: T2, DYRK2 (h) (Homo sapiens, UniProt Q92630)
T2 construct: purchased Millipore
T2 sequence (Q92630 1-601): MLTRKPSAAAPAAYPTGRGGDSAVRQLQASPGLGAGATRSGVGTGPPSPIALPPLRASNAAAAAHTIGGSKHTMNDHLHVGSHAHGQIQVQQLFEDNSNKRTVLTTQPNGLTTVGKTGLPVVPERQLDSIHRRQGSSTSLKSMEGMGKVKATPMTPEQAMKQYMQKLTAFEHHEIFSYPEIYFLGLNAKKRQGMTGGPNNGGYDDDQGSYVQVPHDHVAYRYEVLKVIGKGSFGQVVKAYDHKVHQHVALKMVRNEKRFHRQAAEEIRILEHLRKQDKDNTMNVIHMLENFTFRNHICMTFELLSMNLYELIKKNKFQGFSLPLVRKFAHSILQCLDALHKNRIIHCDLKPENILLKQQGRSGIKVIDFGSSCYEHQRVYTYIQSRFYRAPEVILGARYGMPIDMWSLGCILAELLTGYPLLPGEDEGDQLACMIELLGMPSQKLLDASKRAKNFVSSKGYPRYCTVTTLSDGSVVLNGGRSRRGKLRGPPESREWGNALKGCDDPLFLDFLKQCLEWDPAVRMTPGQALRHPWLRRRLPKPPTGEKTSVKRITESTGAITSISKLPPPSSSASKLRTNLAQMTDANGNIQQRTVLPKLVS
In short: as §1

[3] = target: T3, NEK7 (h) (Homo sapiens, UniProt Q8TDX7)
T3 construct: purchased Millipore
In short: as §1

[4] = target: T4, ALK4 (h) (Homo sapiens, UniProt P36896)
T4 sequence (P36896 24-505): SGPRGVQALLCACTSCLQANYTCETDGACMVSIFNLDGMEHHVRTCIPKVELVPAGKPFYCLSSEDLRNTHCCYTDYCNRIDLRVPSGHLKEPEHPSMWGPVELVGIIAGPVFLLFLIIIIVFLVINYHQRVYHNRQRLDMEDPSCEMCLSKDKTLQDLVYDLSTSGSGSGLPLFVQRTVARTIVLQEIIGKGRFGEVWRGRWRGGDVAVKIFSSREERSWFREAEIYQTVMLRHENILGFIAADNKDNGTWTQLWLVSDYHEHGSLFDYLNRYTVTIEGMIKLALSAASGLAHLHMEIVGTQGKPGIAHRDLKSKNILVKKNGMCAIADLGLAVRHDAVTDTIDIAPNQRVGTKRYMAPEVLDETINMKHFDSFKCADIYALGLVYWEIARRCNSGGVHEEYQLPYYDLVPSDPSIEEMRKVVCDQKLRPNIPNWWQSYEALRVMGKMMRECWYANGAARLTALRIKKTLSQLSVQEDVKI
In short: as §1

[5] = target: T5, MLK1 (h) (Homo sapiens, UniProt P80192)
T5 construct: purchased Millipore
In short: as §1

[6] = target: FAK (h) (Homo sapiens, UniProt Q05397)
In short: as §1

T5 sequence (P80192 whole entry): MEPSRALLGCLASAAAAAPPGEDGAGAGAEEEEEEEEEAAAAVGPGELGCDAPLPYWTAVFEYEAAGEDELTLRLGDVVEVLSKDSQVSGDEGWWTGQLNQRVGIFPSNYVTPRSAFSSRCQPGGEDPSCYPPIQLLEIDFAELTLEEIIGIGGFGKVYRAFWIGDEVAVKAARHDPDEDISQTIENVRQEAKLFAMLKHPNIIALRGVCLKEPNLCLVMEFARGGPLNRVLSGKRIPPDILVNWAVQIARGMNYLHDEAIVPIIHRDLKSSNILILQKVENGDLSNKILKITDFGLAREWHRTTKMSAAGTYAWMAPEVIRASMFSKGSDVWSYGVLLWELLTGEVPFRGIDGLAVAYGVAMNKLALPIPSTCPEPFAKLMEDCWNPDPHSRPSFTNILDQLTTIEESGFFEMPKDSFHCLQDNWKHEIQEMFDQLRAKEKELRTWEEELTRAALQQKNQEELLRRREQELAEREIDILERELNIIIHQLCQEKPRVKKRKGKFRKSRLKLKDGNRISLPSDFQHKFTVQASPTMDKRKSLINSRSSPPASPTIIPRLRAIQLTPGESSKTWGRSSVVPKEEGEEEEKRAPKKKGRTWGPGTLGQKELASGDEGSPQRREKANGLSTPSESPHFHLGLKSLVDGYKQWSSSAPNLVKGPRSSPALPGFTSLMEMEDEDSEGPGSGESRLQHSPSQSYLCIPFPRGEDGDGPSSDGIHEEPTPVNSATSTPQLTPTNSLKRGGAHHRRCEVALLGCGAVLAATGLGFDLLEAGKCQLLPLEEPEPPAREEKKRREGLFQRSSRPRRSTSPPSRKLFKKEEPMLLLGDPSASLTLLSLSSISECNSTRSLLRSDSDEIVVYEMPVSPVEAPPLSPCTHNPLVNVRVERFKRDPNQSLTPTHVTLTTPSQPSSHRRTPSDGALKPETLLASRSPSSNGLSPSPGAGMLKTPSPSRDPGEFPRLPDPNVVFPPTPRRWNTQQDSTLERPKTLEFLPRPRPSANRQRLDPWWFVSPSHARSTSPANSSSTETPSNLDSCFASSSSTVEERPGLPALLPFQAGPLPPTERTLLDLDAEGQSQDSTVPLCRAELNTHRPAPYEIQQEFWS
T3 sequence (Q8TDX7 whole entry): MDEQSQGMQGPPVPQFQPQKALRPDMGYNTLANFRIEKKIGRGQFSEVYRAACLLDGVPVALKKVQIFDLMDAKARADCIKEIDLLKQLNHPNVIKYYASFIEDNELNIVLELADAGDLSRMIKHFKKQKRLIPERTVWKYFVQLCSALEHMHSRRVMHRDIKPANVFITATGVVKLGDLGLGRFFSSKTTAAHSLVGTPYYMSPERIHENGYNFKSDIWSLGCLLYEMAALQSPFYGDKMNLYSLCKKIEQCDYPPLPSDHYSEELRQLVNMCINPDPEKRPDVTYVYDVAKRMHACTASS
FAK (h), sequence (Q05397 whole entry): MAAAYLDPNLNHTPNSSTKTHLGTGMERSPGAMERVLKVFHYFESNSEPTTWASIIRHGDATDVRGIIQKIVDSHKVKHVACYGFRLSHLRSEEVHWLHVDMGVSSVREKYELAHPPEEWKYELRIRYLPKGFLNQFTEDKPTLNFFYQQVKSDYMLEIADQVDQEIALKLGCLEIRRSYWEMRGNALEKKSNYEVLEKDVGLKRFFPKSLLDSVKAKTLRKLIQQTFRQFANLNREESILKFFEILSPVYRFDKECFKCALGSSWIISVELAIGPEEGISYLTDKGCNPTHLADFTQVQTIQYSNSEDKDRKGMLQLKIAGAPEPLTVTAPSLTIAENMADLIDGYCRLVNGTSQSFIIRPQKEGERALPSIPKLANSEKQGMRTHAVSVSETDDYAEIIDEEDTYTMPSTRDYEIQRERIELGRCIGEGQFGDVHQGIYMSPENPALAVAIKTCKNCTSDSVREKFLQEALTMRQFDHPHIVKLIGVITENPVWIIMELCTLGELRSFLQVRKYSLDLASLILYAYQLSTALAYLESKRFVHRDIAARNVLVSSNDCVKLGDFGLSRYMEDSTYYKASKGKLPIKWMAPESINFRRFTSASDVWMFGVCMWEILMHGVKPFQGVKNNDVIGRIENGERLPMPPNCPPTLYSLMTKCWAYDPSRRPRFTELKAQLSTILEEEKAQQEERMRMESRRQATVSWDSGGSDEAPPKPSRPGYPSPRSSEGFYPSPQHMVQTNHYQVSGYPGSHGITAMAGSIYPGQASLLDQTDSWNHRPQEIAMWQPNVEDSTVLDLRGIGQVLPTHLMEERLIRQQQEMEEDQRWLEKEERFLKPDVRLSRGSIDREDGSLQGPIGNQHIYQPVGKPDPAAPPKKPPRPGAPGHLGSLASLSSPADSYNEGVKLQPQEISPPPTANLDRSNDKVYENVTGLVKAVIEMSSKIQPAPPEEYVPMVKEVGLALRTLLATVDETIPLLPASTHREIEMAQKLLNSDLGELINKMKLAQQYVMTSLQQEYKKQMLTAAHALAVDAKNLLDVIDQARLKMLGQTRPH

Sequence	% activity [1]	% activity [2]	% activity [3]	% activity [4]	% activity [5]	% activity [6]
FAKLAARLYRKALARQLGVAA [MMI-0300]	70%	155%	84%	140%	40%	
HRRIKAWLKKIKALARQLGVAA (Mammalian) [MMI-0500]	15%	127%	89%	81%	43%	94%
YARAAARQARAKALNRQLGVA (Mammalian) [MMI-0200]	93%	142%	96%	152%	84%	110%
KAFAKLAARLYRKALARQLGVAA [MMI-0400]	74%	195%	87%	130%	33%	96%
